One data set has as its target T1, dHEXIM WT (Drosophila, UniProt Q7K4N7 1-349).
T1 sequence: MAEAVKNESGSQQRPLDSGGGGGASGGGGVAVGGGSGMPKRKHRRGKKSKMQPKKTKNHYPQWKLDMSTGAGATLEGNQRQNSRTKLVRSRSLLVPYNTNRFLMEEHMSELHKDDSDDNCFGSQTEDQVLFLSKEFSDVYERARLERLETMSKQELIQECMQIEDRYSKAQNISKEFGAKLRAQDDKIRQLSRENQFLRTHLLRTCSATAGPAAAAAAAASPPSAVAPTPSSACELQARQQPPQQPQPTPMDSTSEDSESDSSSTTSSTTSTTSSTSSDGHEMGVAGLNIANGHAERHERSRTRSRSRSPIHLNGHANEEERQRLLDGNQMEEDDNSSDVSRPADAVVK
Nature of the data set: EMSA.

For another data set, the target named is T2, dHEXIM ILAA (Drosophila, UniProt Q7K4N7 1-349, K42I;H43L;R44A;R45A).
T2 sequence: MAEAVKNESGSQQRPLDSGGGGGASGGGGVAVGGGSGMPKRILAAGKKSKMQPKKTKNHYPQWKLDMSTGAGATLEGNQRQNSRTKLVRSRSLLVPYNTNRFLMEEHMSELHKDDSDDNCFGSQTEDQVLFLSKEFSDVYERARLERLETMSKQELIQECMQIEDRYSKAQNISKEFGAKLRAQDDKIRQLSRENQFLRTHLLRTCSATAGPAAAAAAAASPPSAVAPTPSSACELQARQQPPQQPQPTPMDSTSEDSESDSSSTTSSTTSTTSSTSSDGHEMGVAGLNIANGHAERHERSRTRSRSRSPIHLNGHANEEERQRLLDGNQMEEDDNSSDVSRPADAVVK
Kind of data set: EMSA.

B1: dsRNA oligo (TTF2 25-mer) (dsRNA)
RNA 1: CAAGCAAGAGGCAGAGAUCCCAGGU
RNA 2: ACCUGGGAUCUCUGCCUCUUGCUUG
As to B1, the figures for the binding result with dHEXIM WT and in the data set with dHEXIM ILAA were “binds” and “no binding”, respectively.

The record behind these values is publication PMC3384314.
